Measured values reported in patent US8859026B2, “Method for reducing methoxypyrazines in grapes and grape products” (Brock University, priority 2009, dated 2014).
Read-outs that look alike come from different tables or passages of the source. Values belong to the molecule of their own block, whether it stands above or below them.

Experiments:
piglet OBP = biological target: T1, piglet OBP (Sus scrofa, UniProt P81245); assay: Competitive fluorescent binding assay: displacement of 1-AMA from piglet OBP by odorants IPMP and IBMP; parameters: species or system porcine
T1 construct: made in house; host or cells: Pichia pastoris GS115 (pPIC9, alpha-mating factor secretion signal)
T1 sequence (P81245 with tags, fused parts or gaps): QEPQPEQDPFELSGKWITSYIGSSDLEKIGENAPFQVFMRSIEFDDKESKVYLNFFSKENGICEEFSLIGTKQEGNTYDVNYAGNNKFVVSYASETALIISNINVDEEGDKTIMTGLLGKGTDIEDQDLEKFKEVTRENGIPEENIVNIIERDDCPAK
Procedure: The interaction of odorants with AMA complex was examined by monitoring the decrease in fluorescence intensity of protein/1-AMA complex upon the addition of competitor compounds.
In competitive binding assays, 1-AMA (10 μM) was equilibrated with protein (2 μM) at pH 7.2 50 mM sodium phosphate buffer and pH 3.0 50 mM citrate phosphate buffer, and titrated with increasing concentrations of odorants (0-100 μM) solubilized in 10% v/v methanol.
The affinity of OBPs for odorants was estimated by plotting the decrease of intensity of 1-AMA fluorescence at the emission maximum, (22). Odorant concentrations causing fluorescence decay to half-maximal intensity (IC50 values) were determined from the plot of (I−Imin)/(I0−Imin) against the competitor concentration; I0 is the maximum of fluorescence intensity of the protein/1-AMA complex; I is the fluorescence intensity after addition of an aliquot of competitor, and Imin the fluorescence intensity at saturating concentration of the competitor.

[1] = Protein-MP binding reaction, complex removed by bentonite fining and 0.22 μm filtration, free IBMP by GC/MS; details: Chardonnay Juice at pH 3.5
Procedure: The protein solutions, in a 2 ml volume, were spiked with IBMP or IPMP at 300 ng/l and allowed to incubate in a glass vial for 2 h, at RT on a gel shaker. In binding reactions using bentonite to remove the protein-MP complex, the binding reactions were performed in pH 3.5 and pH 4 using bentonite (3 g/l) to remove the protein and protein-ligand complex. To remove any residual bentonite from the reaction, samples were also filtered through a 0.22 μm Durapore filter unit (Millipore). In another assay using a 10 kDa cutoff filter to remove the protein-MP complex, the binding reactions were performed in buffer at pH 3 and pH 7.2. The reactions were centrifuged through a 10 KDa molecular weight cut-off (10MWCO) Omega filter unit made of polyethersulfone (PALL Life Sciences) to separate the proteins and bound MP from the free MP fraction. The concentration of free (unbound) MP fraction was then determined using HS SPME GC/MS. The limit of quantification for the compound IBMP was determined to be 6 ng/L and for IPMP was 2 ng/L, based on 10 times signal/noise. The limit of detection for MPs in the present system is 1.8 ng/L for IBMP and 0.6 ng/L for IPMP as calculated based on 3 times the signal/noise ratio. The data has been reported to the limit of quantification in the figures. […]

[2] = physiological pH, published values; read-out: apparent Kd for IBMP / MPs, literature; cited from earlier work
[3] = Protein-MP binding reaction, complex removed by 10 kDa cut-off PES membrane filtration, free IPMP by HS SPME GC/MS
Procedure: (§1) The freeze dried preparations of pIOBP and mMUPII were resuspended in phosphate citrate buffers at pH 3.0, 3.5 or 4.0 or phosphate buffer at pH 7.2, to final concentrations between 40-50 μM. The protein solutions, in a 2 ml volume, were spiked with IBMP or IPMP at 300 ng/l and allowed to incubate in a glass vial for 2 h, at RT on a gel shaker. In binding reactions using bentonite to remove the protein-MP complex, the binding reactions were performed in pH 3.5 and pH 4 using bentonite (3 g/l) to remove the protein and protein-ligand complex. To remove any residual bentonite from the reaction, samples were also filtered through a 0.22 μm Durapore filter unit (Millipore). In another assay using a 10 kDa cutoff filter to remove the protein-MP complex, the binding reactions were performed in buffer at pH 3 and pH 7.2. The reactions were centrifuged through a 10 KDa molecular weight cut-off (10MWCO) Omega filter unit made of polyethersulfone (PALL Life Sciences) to separate the proteins and bound MP from the free MP fraction. The concentration of free (unbound) MP fraction was then determined using HS SPME GC/MS. The limit of quantification for the compound IBMP was determined to be 6 ng/L and for IPMP was 2 ng/L, based on 10 times signal/noise. The limit of detection for MPs in the present system is 1.8 ng/L for IBMP and 0.6 ng/L for IPMP as calculated based on 3 times the signal/noise ratio. The data has been reported to the limit of quantification in the figures.
(§2) For the membrane filtration trials, the starting concentration of MPs in the reaction were tested, the free MPs after the 10MWCO filtration without addition of protein were tested, and the free MPs in solution after the protein binding reaction and filtration were tested.

[4] = Protein-MP binding reaction, complex removed by 10 kDa cut-off PES membrane filtration, free IBMP by HS SPME GC/MS
Procedure: as §1, §2

[5] = pH of binding: 7.4; cited from earlier work
[6] = Binding of human OBPIIaα to fluorescent probes 1,8 ANS and 1-AMA; details: pH 7.2 and 3.0
Procedure: The excitation wavelength of 372 nm was used for ANS and fluorescence emission intensity was monitored at 475 nm. […] The excitation wavelength of 290 nm was used and fluorescence emission intensity was monitored at 490 nm.
Fluorescence ligand binding experiments were performed on a Photon Technology International (London, Canada) Quanta Master Model QM2001 fluorometer at room temperature (19-20° C.), using 1 cm light path quartz cuvettes (Hellma). Slit width of 2 nm was used for excitation and emission for assaying a proteins except ratOBP1F, for which excitation and emission slit width of 6 nm was used.

[7] = Intrinsic fluorescence of human OBPIIaα at pH 7.2 and pH 3.0; format: physicochemical; details: pH 3.0 vs pH 7.2

B1: mouse MUPII: mouse major urinary protein isoform II (Genbank AJ309921, Uniprot P11589), recombinant from P. pastoris (protein, UniProt P11589 19-180, looked up)
Major urinary protein 2: EEASSTGRNFNVEKINGEWHTIILASDKREKIEDNGNFRLFLEQIHVLEKSLVLKFHTVRDEECSELSMVADKTEKAGEYSVTYDGFNTFTIPKTDYDNFLMAHLINEKDGETFQLMGLYGREPDLSSDIKERFAKLCEEHGILRENIIDLSNANRCLQARE
modifications: recombinant from Pichia pastoris
IBMP reduction by protein beyond bentonite and filter [1]: further reduced
Kd [2]: 0.94 µM
IPMP concentration after protein treatment and 10 MWCO filtration ([3]; juice): 4 ng/L
IPMP concentration after protein treatment and 10 MWCO filtration ([3]; pH 3.0 buffer): 3 ng/L
IPMP concentration after protein treatment and 10 MWCO filtration ([3]; pH 7.2 buffer): 3 ng/L
IBMP concentration after protein treatment and 10 MWCO filtration ([4]; Chardonnay juice, limit of quantification): 6 ng/L
IBMP concentration after protein treatment and 10 MWCO filtration ([4]; pH 3.0 buffer, 300 ng/l spike, limit of quantification): 6 ng/L
IBMP concentration after protein treatment and 10 MWCO filtration ([4]; pH 7.2 buffer, 300 ng/l spike): 11 ng/L

B2: mouse MUPI: mouse major urinary protein I (Uniprot P11588), differs from MUPII by three amino acid residues (protein, UniProt P11588 19-180, looked up)
Major urinary protein 1: EEASSTGRNFNVEKINGEWHTIILASDKREKIEDNGNFRLFLEQIHVLENSLVLKFHTVRDEECSELSMVADKTEKAGEYSVTYDGFNTFTIPKTDYDNFLMAHLINEKDGETFQLMGLYGREPDLSSDIKERFAQLCEKHGILRENIIDLSNANRCLQARE
binding of methoxypyrazines [5]: binds both IPMP and IBMP

The next lines start with results.

IC50 (piglet OBP; pH 3.0): 5.98 µM
Kd (piglet OBP; pH 3.0, calculated from IC50, read-out: Kd for piglet OBP): 2.34 µM
Kd (piglet OBP; pH 3, read-out: apparent Kd for pIOBP): 2.1 µM
higher affinity for pIOBP at pH 3.0 compared with pH 7.2 (piglet OBP; pH 3.0 vs pH 7.2): about 2 fold
IC50 (piglet OBP; pH 7.2): 32.8 µM
Kd (piglet OBP; pH 7.2, calculated from IC50, read-out: Kd for piglet OBP): 4.46 µM
Kd (piglet OBP; pH 7.2, read-out: apparent Kd for pIOBP): 4.5 µM
Molecule: COc1nccnc1C(C)C [IPMP, 2-isopropyl-3-methoxypyrazine]

binding to fluorescent probes [6]: shows binding
B3: human OBPIIaα: human odorant binding protein IIa alpha (Genbank AJ251021, UniProt Q9NY56), recombinant from P. pastoris (protein, UniProt Q9NY56 16-170, looked up)
Odorant-binding protein 2a: LSFTLEEEDITGTWYVKAMVVDKDFPEDRRPRKVSPVKVTALGGGNLEATFTFMREDRCIQKKILMRKTEEPGKFSAYGGRKLIYLQELPGTDDYVFYCKDQRRGGLRYMGKLVGRNPNTNLEALEEFKKLVQHKGLSEEDIFMPLQTGSCVLEH
modifications: recombinant from Pichia pastoris
Kd [2]: 0.9 to 1.1 µM
protein conformation on acidification (tryptophan emission maximum) [7]: does not modify protein conformation
